{"source": "patent CN117736312A", "about": "(SHANGHAI BOVAX BIOLOGICAL SCIENCE & TECH CO LTD, dated 2024)", "assay_in_all_cases": "sandwich ELISA (rabbit anti-L1 capture)", "key": {"[1]": {"target": "T1, HPV56L1 (human papillomavirus type 56, UniProt P36743 36-534)", "T1 sequence": "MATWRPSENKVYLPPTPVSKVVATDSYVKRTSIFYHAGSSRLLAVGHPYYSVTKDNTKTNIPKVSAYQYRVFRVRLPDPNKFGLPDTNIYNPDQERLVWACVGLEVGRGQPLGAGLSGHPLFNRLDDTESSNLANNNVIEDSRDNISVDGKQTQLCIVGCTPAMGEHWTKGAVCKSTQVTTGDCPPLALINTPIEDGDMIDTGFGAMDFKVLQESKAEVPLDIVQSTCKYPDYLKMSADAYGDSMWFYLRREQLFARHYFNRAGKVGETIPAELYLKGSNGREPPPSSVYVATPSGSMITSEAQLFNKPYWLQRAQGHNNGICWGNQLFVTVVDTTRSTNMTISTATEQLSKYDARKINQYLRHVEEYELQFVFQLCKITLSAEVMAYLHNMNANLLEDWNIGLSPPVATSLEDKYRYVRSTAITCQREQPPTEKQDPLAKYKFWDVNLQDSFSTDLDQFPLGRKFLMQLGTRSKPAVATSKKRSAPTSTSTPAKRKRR"}, "[2]": {"target": "T2, HPV18L1 (human papillomavirus type 18, UniProt P06794 62-568)", "T2 sequence": "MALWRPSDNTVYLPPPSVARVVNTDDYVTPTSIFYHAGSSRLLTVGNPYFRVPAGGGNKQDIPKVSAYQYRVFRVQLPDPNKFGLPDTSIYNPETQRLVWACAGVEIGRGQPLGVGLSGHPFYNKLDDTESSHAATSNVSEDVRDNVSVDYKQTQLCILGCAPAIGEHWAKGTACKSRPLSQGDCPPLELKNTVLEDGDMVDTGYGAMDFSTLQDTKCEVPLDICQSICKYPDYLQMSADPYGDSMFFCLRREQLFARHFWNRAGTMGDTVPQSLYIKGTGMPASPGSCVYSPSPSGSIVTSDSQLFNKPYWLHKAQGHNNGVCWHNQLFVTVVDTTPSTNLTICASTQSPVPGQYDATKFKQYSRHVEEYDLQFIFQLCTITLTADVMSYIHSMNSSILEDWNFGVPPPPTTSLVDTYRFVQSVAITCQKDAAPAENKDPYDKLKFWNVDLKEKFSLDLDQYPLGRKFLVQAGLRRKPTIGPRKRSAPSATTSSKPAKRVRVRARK"}, "[3]": {"target": "T3, HPV33L1 (human papillomavirus type 33, UniProt P06416 1-499)", "T3 sequence": "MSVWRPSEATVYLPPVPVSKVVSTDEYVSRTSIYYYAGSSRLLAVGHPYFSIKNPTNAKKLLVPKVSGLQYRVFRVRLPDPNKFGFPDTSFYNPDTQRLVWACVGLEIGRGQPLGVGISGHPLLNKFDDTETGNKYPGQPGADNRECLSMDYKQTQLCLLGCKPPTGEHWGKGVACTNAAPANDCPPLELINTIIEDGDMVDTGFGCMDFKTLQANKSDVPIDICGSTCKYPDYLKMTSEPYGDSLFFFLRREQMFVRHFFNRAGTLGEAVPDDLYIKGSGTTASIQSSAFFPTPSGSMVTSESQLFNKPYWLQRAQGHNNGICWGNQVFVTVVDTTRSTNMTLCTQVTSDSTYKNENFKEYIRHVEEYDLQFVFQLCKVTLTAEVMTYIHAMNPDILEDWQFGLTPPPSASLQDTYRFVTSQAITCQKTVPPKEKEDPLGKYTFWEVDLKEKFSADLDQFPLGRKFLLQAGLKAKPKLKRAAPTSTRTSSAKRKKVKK"}, "[4]": {"target": "T4, HPV58L1 (human papillomavirus type 58, UniProt P26535 27-524)", "T4 sequence": "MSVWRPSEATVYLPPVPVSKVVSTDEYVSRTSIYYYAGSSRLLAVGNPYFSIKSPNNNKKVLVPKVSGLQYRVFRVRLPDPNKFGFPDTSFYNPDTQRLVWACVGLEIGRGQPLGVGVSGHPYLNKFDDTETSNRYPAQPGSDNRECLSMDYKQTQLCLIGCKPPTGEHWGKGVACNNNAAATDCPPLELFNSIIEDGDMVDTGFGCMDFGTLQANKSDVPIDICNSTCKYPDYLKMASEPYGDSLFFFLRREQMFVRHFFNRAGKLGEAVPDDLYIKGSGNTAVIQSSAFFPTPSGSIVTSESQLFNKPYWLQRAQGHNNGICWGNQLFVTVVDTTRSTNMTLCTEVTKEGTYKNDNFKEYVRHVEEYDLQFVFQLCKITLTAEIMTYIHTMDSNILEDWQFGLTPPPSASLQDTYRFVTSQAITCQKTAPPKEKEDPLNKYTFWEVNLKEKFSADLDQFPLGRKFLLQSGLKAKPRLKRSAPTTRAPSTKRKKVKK"}, "[5]": {"target": "T5, HPV52L1 (human papillomavirus type 52, UniProt Q05138 27-529)", "T5 sequence": "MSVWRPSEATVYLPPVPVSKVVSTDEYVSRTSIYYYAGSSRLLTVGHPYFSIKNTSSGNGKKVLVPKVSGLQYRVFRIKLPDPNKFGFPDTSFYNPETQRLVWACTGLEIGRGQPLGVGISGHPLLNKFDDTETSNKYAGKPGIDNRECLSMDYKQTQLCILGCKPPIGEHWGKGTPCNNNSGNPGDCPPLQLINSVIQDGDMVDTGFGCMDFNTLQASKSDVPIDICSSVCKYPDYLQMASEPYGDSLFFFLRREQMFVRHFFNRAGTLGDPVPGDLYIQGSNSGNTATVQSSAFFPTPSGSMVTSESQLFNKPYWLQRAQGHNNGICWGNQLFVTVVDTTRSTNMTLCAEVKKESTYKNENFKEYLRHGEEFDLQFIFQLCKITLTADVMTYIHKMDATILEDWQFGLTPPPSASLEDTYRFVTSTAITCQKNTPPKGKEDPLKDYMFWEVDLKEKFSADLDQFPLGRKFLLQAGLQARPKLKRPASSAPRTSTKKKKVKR"}}, "data": [{"binder": "HPV 59编号为30单克隆抗体 (antibody, V domains shown, Mouse hybridoma antibody tested as cell supernatant; also called 59H30) VH: QIQLVQSGPELKKPGETVKISCKASGYTFTDYSMHWVKQAPGKGLKWMGWINTETGEPTYADDFKGRFAFSLETSASTAYLQINNLKIEDTATYFCTRDGYVWYFDVWGAGTTVTVSS VL: QIVLSQSPAILSASPGEKVTMTCRASSSVNYMHWYQQKPGSSPKPWIYATSNLASGVPARFSGSGSGTSYSLTISRVEAEDAATYYCQQWSSNPIFTFGSGTKLEIK", "values": [{"measurement": "binding result", "setting": "[1]", "result": "no binding (tested: 原液40μg/ml; 细胞上清1:100)"}, {"measurement": "binding result", "setting": "[2]", "result": "no binding (tested: 原液40μg/ml; 细胞上清1:100)"}, {"measurement": "binding result", "setting": "[3]", "result": "no binding (tested: 原液40μg/ml; 细胞上清1:100)"}, {"measurement": "binding result", "setting": "[4]", "result": "no binding (tested: 原液40μg/ml; 细胞上清1:100)"}, {"measurement": "binding result", "setting": "[5]", "result": "no binding (tested: 原液40μg/ml; 细胞上清1:100)"}]}]}
